T1: Tau peptide A6940 (human, biotin (bound via biotin to a streptavidin biosensor in the Octet assay; position of the biotin not stated))
T1 construct: Biotinylated in the Octet assay; also called cognate Tau peptide A6940
T1 peptide: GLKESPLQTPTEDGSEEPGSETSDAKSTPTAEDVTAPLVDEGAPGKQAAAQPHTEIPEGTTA


How the values were obtained:
[1] = target: T2, Aggregated recombinant 2N4R tau (rTau) (human, UniProt P10636 2-758, covalently labelled with pHrodo Green STP Ester); assay: uptake of pHrodo-labelled rTau immunocomplexes by BV2 cells, flow cytometry
T2 construct: Full-length huTau441 expressed in E. coli, in aggregated form; also called rTau aggregates; tau aggregates
T2 sequence (P10636 other isoform, or with tags, fused parts or gaps limits assumed): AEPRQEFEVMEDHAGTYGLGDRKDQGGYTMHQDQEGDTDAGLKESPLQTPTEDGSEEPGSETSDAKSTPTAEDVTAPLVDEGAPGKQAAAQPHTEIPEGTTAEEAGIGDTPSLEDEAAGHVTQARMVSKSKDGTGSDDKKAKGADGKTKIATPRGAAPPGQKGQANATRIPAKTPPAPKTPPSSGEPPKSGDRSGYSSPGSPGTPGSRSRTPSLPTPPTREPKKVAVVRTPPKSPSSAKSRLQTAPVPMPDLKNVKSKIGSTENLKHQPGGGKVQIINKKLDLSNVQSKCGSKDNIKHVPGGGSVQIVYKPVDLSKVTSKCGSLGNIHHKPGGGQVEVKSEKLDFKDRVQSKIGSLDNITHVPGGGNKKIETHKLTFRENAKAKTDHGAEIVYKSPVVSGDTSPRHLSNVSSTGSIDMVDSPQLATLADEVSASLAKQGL
Procedure: In each experiment a mouse IgG1 isotype control was included together with cells incubate with only aggregated rTau.
Immunocomplexes were incubated over night at 4° C. and the day after applied to BV2 cells for 2 hours at 37° C. with 5% CO2. After incubation cells were harvested with 0.25% trypsin-EDTA for 20 min thus simultaneously removing Tau bound to the extracellular membrane, centrifuged at 400 rcf to remove medium removed, washed twice with PBS and resuspended in flow cytometry buffer (PBS 1× plus 0.5% BSA and 2 mM EDTA). Cells were analyzed with a Canto II flow cytometer (BD) gating for live single cell population, as identified by forward and side scatter profiles. Each experiment was conducted in duplicate.

Tau peptide A6940 = target: T1, Tau peptide A6940; assay: ITC, tau peptide 20 uM titrated with IgG 200 uM, PBS pH 7.4, one set of sites model
Procedure: Affinities of the novel antibodies were determined using a Microcal Auto-iTC200 isothermal titration calorimeter (Malvern). […] Data was fitted according to a one set of sites model using Microcal PEAQ-ITC Analysis Software (Malvern).
The continuous lines represent the fit of the data to a “one set of binding sites” model.

Row | binding result [1] | Kd (Tau peptide A6940) [µM] | Binder
1 | binds | 0.045 | CBTAU-28.1 (I50M[VH];Y52W[VH];S103F[VH];Y31W[VL];N99H[VL]) (antibody, V domains shown) VH: QVQLQQSGAEVKKPGESLKISCEASGYSFTNYWIGWVRQMPGKGLEWMGMIWPGDSDTRYSPPFQGQVTITADRSITTAYLEWSSLKASDTAMYYCARVGRPFKGGWFDPWGQGTLVTVSS VL: DIQMTQSPDSLAVSLGERATINCESSQTLLWSSNEKNYLAWYQQKPGQPPKLLISWASTPESGVPDRFSGSGSGTSFTLTISSLQAEDVAVYYCQQYYHSPYTFGQGTRLEIK
2 | binds |  | CBTAU-28.1 (S32R[VL];E35K[VL]) (antibody, V domains shown) VH: QVQLQQSGAEVKKPGESLKISCEASGYSFTNYWIGWVRQMPGKGLEWMGIIYPGDSDTRYSPPFQGQVTITADRSITTAYLEWSSLKASDTAMYYCARVGRPSKGGWFDPWGQGTLVTVSS VL: DIQMTQSPDSLAVSLGERATINCESSQTLLYRSNKKNYLAWYQQKPGQPPKLLISWASTPESGVPDRFSGSGSGTSFTLTISSLQAEDVAVYYCQQYYNSPYTFGQGTRLEIK

Continued, binder first:

Row | Binder | binding result [1] | Kd (Tau peptide A6940) [µM]
3 | CBTAU-28.1 (I50M[VH];Y52W[VH];S103W[VH];S32R[VL];E35K[VL]) (antibody, V domains shown) VH: QVQLQQSGAEVKKPGESLKISCEASGYSFTNYWIGWVRQMPGKGLEWMGMIWPGDSDTRYSPPFQGQVTITADRSITTAYLEWSSLKASDTAMYYCARVGRPWKGGWFDPWGQGTLVTVSS VL: DIQMTQSPDSLAVSLGERATINCESSQTLLYRSNKKNYLAWYQQKPGQPPKLLISWASTPESGVPDRFSGSGSGTSFTLTISSLQAEDVAVYYCQQYYNSPYTFGQGTRLEIK | binds | 0.067
4 | CBTAU-28.1 (I50M[VH];Y52W[VH];S103F[VH];S32R[VL];E35K[VL]) (antibody, V domains shown) VH: QVQLQQSGAEVKKPGESLKISCEASGYSFTNYWIGWVRQMPGKGLEWMGMIWPGDSDTRYSPPFQGQVTITADRSITTAYLEWSSLKASDTAMYYCARVGRPFKGGWFDPWGQGTLVTVSS VL: DIQMTQSPDSLAVSLGERATINCESSQTLLYRSNKKNYLAWYQQKPGQPPKLLISWASTPESGVPDRFSGSGSGTSFTLTISSLQAEDVAVYYCQQYYNSPYTFGQGTRLEIK | binds | 0.063
5 | CBTAU-28.1 (I50M[VH];Y52W[VH];S103W[VH];Y31W[VL];N99H[VL]) (antibody, V domains shown) VH: QVQLQQSGAEVKKPGESLKISCEASGYSFTNYWIGWVRQMPGKGLEWMGMIWPGDSDTRYSPPFQGQVTITADRSITTAYLEWSSLKASDTAMYYCARVGRPWKGGWFDPWGQGTLVTVSS VL: DIQMTQSPDSLAVSLGERATINCESSQTLLWSSNEKNYLAWYQQKPGQPPKLLISWASTPESGVPDRFSGSGSGTSFTLTISSLQAEDVAVYYCQQYYHSPYTFGQGTRLEIK | binds | 0.057
